What was measured:
[1] = target: T1, Tsal1 (Glossina morsitans morsitans, UniProt D3TS87 23-399); assay: SPR; conditions: SPR (BIAcore), 50 mM sodium acetate pH 4.0, 150 mM NaCl, 3.5 mM EDTA, 0.005% Tween-20, 30 ul/min, Langmuir 1:1 fit; temperature not stated
T1 sequence: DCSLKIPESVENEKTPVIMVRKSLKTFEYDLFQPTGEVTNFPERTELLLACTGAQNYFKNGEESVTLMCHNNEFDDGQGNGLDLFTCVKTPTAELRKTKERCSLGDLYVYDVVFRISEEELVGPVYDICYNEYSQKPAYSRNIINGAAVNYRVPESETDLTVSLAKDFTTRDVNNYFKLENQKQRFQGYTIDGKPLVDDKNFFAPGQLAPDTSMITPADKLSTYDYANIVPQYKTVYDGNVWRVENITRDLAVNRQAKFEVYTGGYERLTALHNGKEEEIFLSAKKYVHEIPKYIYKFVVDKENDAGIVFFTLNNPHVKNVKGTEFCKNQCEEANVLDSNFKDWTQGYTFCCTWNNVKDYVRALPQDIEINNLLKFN

[2] = target: T1, Tsal1; assay: SPR; text: 1.03 nM; ka 1.0E+06, kd 1.0E-03; SPR (BIAcore), 50 mM sodium acetate pH 4.0, 150 mM NaCl, 3.5 mM EDTA, 0.005% Tween-20, 30 ul/min, Langmuir 1:1 fit; temperature not stated; conditions: protein: recombinant; tags: pelB leader (pET22b), His tag implied by Ni-NTA; blunt

dsDNA 161 bp
Kd [1]: 0.45 nM

dsRNA 121 bp
Kd [1]: 2.8 nM

B1: dsDNA 25bp polyA/T (dsDNA)
DNA 1: AAAAAAAAAAAAAAAAAAAAAAAAA
DNA 2: TTTTTTTTTTTTTTTTTTTTTTTTT
Kd [2]: 1 nM
